Laboratory results taken from publication PMC4703857.

Legend:
[1] = biological target: KdHpuA Δloop-1 (Kingella denitrificans); assay: NMR titration
[2] = biological target: Kingella denitrificans HpuA, wild type (Kingella denitrificans); assay: NMR titration
[3] = biological target: KdHpuA T124D (Kingella denitrificans); assay: NMR titration
[4] = biological target: Kingella denitrificans HpuA, wild type (Kingella denitrificans); assay: ITC
[5] = biological target: transferrin (Homo sapiens) (UniProt P02787); conditions: cited from earlier work
UniProt P02787, sequence (P02787 20-698): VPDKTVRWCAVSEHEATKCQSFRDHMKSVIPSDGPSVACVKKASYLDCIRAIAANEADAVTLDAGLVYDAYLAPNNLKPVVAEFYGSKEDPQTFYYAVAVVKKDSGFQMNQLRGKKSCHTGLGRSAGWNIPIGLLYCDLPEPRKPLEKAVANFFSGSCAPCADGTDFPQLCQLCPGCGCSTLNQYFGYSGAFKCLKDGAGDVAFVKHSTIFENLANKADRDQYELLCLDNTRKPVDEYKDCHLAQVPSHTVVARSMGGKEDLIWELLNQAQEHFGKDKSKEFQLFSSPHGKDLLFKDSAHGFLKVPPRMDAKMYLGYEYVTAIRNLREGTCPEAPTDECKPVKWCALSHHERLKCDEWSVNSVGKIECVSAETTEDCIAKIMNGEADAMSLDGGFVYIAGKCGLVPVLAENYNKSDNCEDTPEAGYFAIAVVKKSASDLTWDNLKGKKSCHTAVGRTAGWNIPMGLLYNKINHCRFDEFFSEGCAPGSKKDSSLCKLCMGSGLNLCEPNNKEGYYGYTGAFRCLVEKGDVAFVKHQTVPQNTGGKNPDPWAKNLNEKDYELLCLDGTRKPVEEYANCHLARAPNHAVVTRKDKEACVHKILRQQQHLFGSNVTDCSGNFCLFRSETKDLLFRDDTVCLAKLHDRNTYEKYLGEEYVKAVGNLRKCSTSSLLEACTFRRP

[6] = biological target: human haemoglobin (human); assay: ITC
[7] = biological target: haemoglobin:haptoglobin complex (UniProt P00738); assay: ITC

Substance: human haemoglobin (complex)
- Kd [1]: 150 µM
- Kd [2]: 10 µM
- Kd [3]: 16 µM
- Kd [4]: 6.1 µM
- stoichiometry N (Hb tetramers per HpuA) [4]: 0.5

Substance: TbpAB (from UniProt Q9K0U9)
- Kd [5]: 0.8 nM

Substance: Kingella denitrificans HpuA, wild type (natural protein)
- Kd [6]: 10.9 µM
- stoichiometry N (HpuA per Hb tetramer) [6]: 2
- Kd [7]: 2900 nM
- stoichiometry N (HpuA per Hb4:Hp4 complex) [7]: 2
